How the values were obtained:
[1] = biological target: CheY2-T25 (P. aeruginosa); experiment: two-hybrid
[2] = biological target: T25-CheY2 (P. aeruginosa); experiment: two-hybrid

Row | fold β-galactosidase activity over controls [1] | fold β-galactosidase activity over control [2] | Molecule
1 | 34 fold | – | T18-CheA2 (enzyme)
2 | – | 15 fold | CheD_(1–200)-T18 (natural protein) MNLQAREGAPLNRYYDPYFACDAVKLLPGEYFASGEDLVIVTVLGSCVSVCLRDPLNGIAGMNHFMLPERGLGGDPASPSARYGSHAMELLINRMLALGASRERLQAKVFGGGSVLRQISAAIGQRNVEFTLDYLATERIPLLASDVLEAFPRKIYFFPRNGRVLVKSLVELKNDTVLQRERDYRRRIDRNADGGPIDLF

Source: PMC7897226
